{"source": "paper PMC6504684", "about": "(Frontiers in Pharmacology, 2019)", "key": {"[1]": {"target": "glycosylated human nAChR α9-ECD (human) (UniProt Q9UGM1)", "test": "radioligand binding"}, "[2]": {"target": "deglycosylated human nAChR α9-ECD (human) (UniProt Q9UGM1)", "test": "radioligand binding"}}}
{"substance": "α-conotoxin RgIA, globular isomer, C-terminally amidated (from UniProt P0C1D0 20-32) (peptide)", "values": [{"measurement": "Ki", "setting": "[1]", "value": 13.3, "unit": "µM"}, {"measurement": "Ki", "setting": "[2]", "value": 2.7, "unit": "µM"}]}
